Test results: patent US11304964B2, “Bolaamphiphilic compounds, compositions and uses thereof” (priority 2012, dated 2022)

What was measured:
[1] = Tenofovir encapsulation in bolaamphiphile vesicles (UV absorbance after Sephadex G50 separation); format: physicochemical; details: vesicles with vs without SA, Sephadex G50, absorbance at 260 nm
Method: Bolaamphiphiles, cholesterol, and CHMES (2:1:1 mole ratio) are dissolved in chloroform or a suitable solvent. […] The solvents are evaporated under vacuum and the resultant thin films are hydrated in 0.2 mg/mL CF solution in PBS and probe-sonicated (Vibra-Cell VCX130 sonicator, Sonics and Materials Inc., Newtown, Conn., USA) with amplitude 20%, pulse on: 15 sec, pulse off: 10 sec to achieve homogenous vesicle dispersions. Vesicle size and zeta potential were determined using a Zetasizer Nano ZS (Malvern Instruments, UK).
Methods were established to determine quantitatively the amount of the encapsulated tenofovir based on a UV absorption and determined the percent of tenofovir encapsulation by various vesicle formulations (data not shown). […] One objective of this work was to achieve the maximum amount of tenofovir encapsulated per vesicle along with a minimum loss of the non-encapsulated drug. Accordingly, several parameters were examined, such as varying the ratio among the vesicle components, changing the ratio of tenofovir to bolaamphiphiles, varying the pH of the hydration solution and also adding to the formulation additional additives, in the attempt to increase the encapsulation capacity of the vesicles.
In particular, in order to maximize tenofovir encapsulation the following parameters were studied: (1) tenofovir to GLH ratio; (2) adjusting the concentrations of cholestyrl hemisuccinate (CHEM) and cholesterol (CHOL), components that are used in the vesicle formulation, (3) examining several buffers and pHs in the encapsulation process, (4) time of sonication, and (5) tenofovir concentration, and (6) addition of stearyl amine to the vesicle formulation to enhance encapsulation by complexation with tenofovir.
The vesicles were prepared from formulations with and without SA and the non-encapsulated tenofovir (free tenofovir) was separated from the encapsulated tenofovir on Sephadex G50 column and the absorbance at 260 nm of each fraction collected from the column was read.

[2] = Fluorescence in cerebral cortex after i.v. injection of albumin-FITC; format: in vivo; details: mouse cerebral cortex fluorescence
Description: FIG. 5A: Fluorescence in mouse cerebral cortex after i.v. injection of albumin-FITC (non-encapsulated) FIG. 5B: Fluorescence in mouse cerebral cortex after i.v. injection of albumin-FITC encapsulated in GLH-20 vesicles.

Row | Compound | effect of stearyl amine on tenofovir encapsulation [1] | delivery to the brain ([2]; encapsulated in GLH-20 vesicles) | brain accumulation ([2]; un-encapsulated)
1 | CCCCCCCCCCCCCCCCCCN [SA, stearyl amine] | increase tenofovir encapsulation | – | –
2 | Albumin-FITC: FITC-labelled protein albumin | – | delivered successfully to the brain | little, if any, brain accumulation
